In publication PMC12706091:

Target: recombinant Flag-DIC1B (rFlag-DIC1B)
Assay: pull-down; 2 μg Flag-DIC1B on anti-Flag magnetic beads, 2 μg each of Myc-ANXA7 and TIA1 added; NP40 lysis buffer with 0.5 M L-arginine, 4 °C; with or without 1 mM CaCl2; western blot

fold change of TIA1 pulled down with DIC1B, with Myc-ANXA7 against without: 4 fold
B1: recombinant TIA1 (rTIA1) (natural protein)
chain: MEDEMPKTLYVGNLSRDVTEALILQLFSQIGPCKNCKMIMDTAGNDPYCFVEFHEHRHAAAALAAMNGRKIMGKEVKVNWATTPSSQKKDTSSSTVVSTQRSQDHFHVFVGDLSPEITTEDIKAAFAPFGRISDARVVKDMATGKSKGYGFVSFFNKWDAENAIQQMGGQWLGGRQIRTNWATRKPPAPKSTYESNTKQLSYDEVVNQSSPSNCTVYCGGVTSGLTEQLMRQTFSPFGQIMEIRVFPDKGYSFVRFNSHESAAHAIVSVNGTTIEGHVVKCYWGKETLDMINPVQQQNQIGYPQPYGQWGQWYGNAQQIGQYMPNGWQVPAYGMYGQAWNQQGFNQTQSSAPWMGPNYGVQPPQGQNGSMLPNQPSGYRVAGYETQ
